Source: the Human Domainome abundance scans (Beltran et al. 2025)
± gives the uncertainty stated by the source.

B1: Zinc finger homeobox protein 4, residues 2562 to 2617; numbered along this chain, Q86UP3 (parent)
chain: RLRTTITPEQLEILYEKYLLDSNPTRKMLDHIAREVGLKKRVVQVWFQNTRARERK

Variants of: B1
Test: abundance fitness (aPCA) (normalised: wild type 0, dead -1); higher = more abundant; growth selection in yeast, the domain comes from the species named
Details: Homo sapiens
Work on RLRTTITPEQLEILYEKYLLDSNPTRKMLTHIAREVGLKKRVVQVWFQNTRARERK [D30T] yielded an abundance fitness of 0.002 ± 0.089.
Variant RLRTTITPEQLEILYEKYLLDSNPTRKMLCHIAREVGLKKRVVQVWFQNTRARERK [D30C] has an abundance fitness of -0.431 ± 0.16.
Work on RLRTTITPEQLEILYEKYLLDSNPTRKMLEHIAREVGLKKRVVQVWFQNTRARERK [D30E] yielded an abundance fitness of -0.088 ± 0.064.
RLRTTITPEQLEILYEKYLLDSNPTRKMLIHIAREVGLKKRVVQVWFQNTRARERK [D30I] showed an abundance fitness of -0.056 ± 0.29.
Work on RLRTTITPEQLEILYEKYLLDSNPTRKMLGHIAREVGLKKRVVQVWFQNTRARERK [D30G] yielded an abundance fitness of -0.052 ± 0.062.
Work on RLRTTITPEQLEILYEKYLLDSNPTRKMLQHIAREVGLKKRVVQVWFQNTRARERK [D30Q] yielded an abundance fitness of -0.102 ± 0.092.
In the case of RLRTTITPEQLEILYEKYLLDSNPTRKMLAHIAREVGLKKRVVQVWFQNTRARERK [D30A], the abundance fitness is reported as -0.108 ± 0.064.
RLRTTITPEQLEILYEKYLLDSNPTRKMLVHIAREVGLKKRVVQVWFQNTRARERK [D30V] gave an abundance fitness of -0.292 ± 0.074.
RLRTTITPEQLEILYEKYLLDSNPTRKMLRHIAREVGLKKRVVQVWFQNTRARERK [D30R] showed an abundance fitness of -0.144 ± 0.078.
Work on RLRTTITPEQLEILYEKYLLDSNPTRKMLPHIAREVGLKKRVVQVWFQNTRARERK [D30P] yielded an abundance fitness of -0.579 ± 0.22.
RLRTTITPEQLEILYEKYLLDSNPTRKMLSHIAREVGLKKRVVQVWFQNTRARERK [D30S] gave an abundance fitness of -0.062 ± 0.077.
RLRTTITPEQLEILYEKYLLDSNPTRKMLLHIAREVGLKKRVVQVWFQNTRARERK [D30L] showed an abundance fitness of -0.296 ± 0.069.
RLRTTITPEQLEILYEKYLLDSNPTRKMLFHIAREVGLKKRVVQVWFQNTRARERK [D30F] gave an abundance fitness of -0.372 ± 0.068.
In the case of RLRTTITPEQLEILYEKYLLDSNPTRKMLDHIATEVGLKKRVVQVWFQNTRARERK [R34T], the abundance fitness is reported as -0.02 ± 0.1.
For RLRTTITPEQLEILYEKYLLDSNPTRKMLDHIAWEVGLKKRVVQVWFQNTRARERK [R34W], the abundance fitness was -0.139 ± 0.067.
With RLRTTITPEQLEILYEKYLLDSNPTRKMLDHIAFEVGLKKRVVQVWFQNTRARERK [R34F] the abundance fitness was -0.101 ± 0.1.
Variant RLRTTITPEQLEILYEKYLLDSNPTRKMLDHIAAEVGLKKRVVQVWFQNTRARERK [R34A] has an abundance fitness of 0.195 ± 0.073.
For RLRTTITPEQLEILYEKYLLDSNPTRKMLDHIANEVGLKKRVVQVWFQNTRARERK [R34N], the abundance fitness was 0.161 ± 0.18.
In the case of RLRTTITPEQLEILYEKYLLDSNPTRKMLDHIAPEVGLKKRVVQVWFQNTRARERK [R34P], the abundance fitness is reported as -0.638 ± 0.094.
For RLRTTITPEQLEILYEKYLLDSNPTRKMLDHIAHEVGLKKRVVQVWFQNTRARERK [R34H], the abundance fitness was -0.162 ± 0.16.
With RLRTTITPEQLEILYEKYLLDSNPTRKMLDHIADEVGLKKRVVQVWFQNTRARERK [R34D] the abundance fitness was -0.536 ± 0.25.
RLRTTITPEQLEILYEKYLLDSNPTRKMLDHIAGEVGLKKRVVQVWFQNTRARERK [R34G] showed an abundance fitness of 0.123 ± 0.051.
Variant RLRTTITPEQLEILYEKYLLDSNPTRKMLDHIAIEVGLKKRVVQVWFQNTRARERK [R34I] has an abundance fitness of -0.43 ± 0.22.
In the case of RLRTTITPEQLEILYEKYLLDSNPTRKMLDHIAKEVGLKKRVVQVWFQNTRARERK [R34K], the abundance fitness is reported as 0.004 ± 0.08.
For RLRTTITPEQLEILYEKYLLDSNPTRKMLDHIACEVGLKKRVVQVWFQNTRARERK [R34C], the abundance fitness was -0.223 ± 0.17.
RLRTTITPEQLEILYEKYLLDSNPTRKMLDHIAEEVGLKKRVVQVWFQNTRARERK [R34E] showed an abundance fitness of 0.244 ± 0.054.
In the case of RLRTTITPEQLEILYEKYLLDSNPTRKMLDHIAQEVGLKKRVVQVWFQNTRARERK [R34Q], the abundance fitness is reported as 0.107 ± 0.06.
For RLRTTITPEQLEILYEKYLLDSNPTRKMLDHIAMEVGLKKRVVQVWFQNTRARERK [R34M], the abundance fitness was -0.053 ± 0.063.
For RLRTTITPEQLEILYEKYLLDSNPTRKMLDHIALEVGLKKRVVQVWFQNTRARERK [R34L], the abundance fitness was -0.011 ± 0.059.
For RLRTTITPEQLEILYEKYLLDSNPTRKMLDHIASEVGLKKRVVQVWFQNTRARERK [R34S], the abundance fitness was 0.17 ± 0.084.
Variant RLRTTITPEQLEILYEKYLLDSNPTRKMLDFIAREVGLKKRVVQVWFQNTRARERK [H31F] has an abundance fitness of -0.266 ± 0.16.
In the case of RLRTTITPEQLEILYEKYLLDSNPTRKMLDIIAREVGLKKRVVQVWFQNTRARERK [H31I], the abundance fitness is reported as 0.205 ± 0.15.
For RLRTTITPEQLEILYEKYLLDSNPTRKMLDYIAREVGLKKRVVQVWFQNTRARERK [H31Y], the abundance fitness was -0.201 ± 0.33.
Variant RLRTTITPEQLEILYEKYLLDSNPTRKMLDQIAREVGLKKRVVQVWFQNTRARERK [H31Q] has an abundance fitness of 0.176 ± 0.11.
With RLRTTITPEQLEILYEKYLLDSNPTRKMLDSIAREVGLKKRVVQVWFQNTRARERK [H31S] the abundance fitness was 0.233 ± 0.086.
For RLRTTITPEQLEILYEKYLLDSNPTRKMLDMIAREVGLKKRVVQVWFQNTRARERK [H31M], the abundance fitness was -0.169 ± 0.15.
Work on RLRTTITPEQLEILYEKYLLDSNPTRKMLDLIAREVGLKKRVVQVWFQNTRARERK [H31L] yielded an abundance fitness of -0.112 ± 0.087.
RLRTTITPEQLEILYEKYLLDSNPTRKMLDNIAREVGLKKRVVQVWFQNTRARERK [H31N] gave an abundance fitness of -0.335 ± 0.25.
Variant RLRTTITPEQLEILYEKYLLDSNPTRKMLDKIAREVGLKKRVVQVWFQNTRARERK [H31K] has an abundance fitness of 0.146 ± 0.095.
With RLRTTITPEQLEILYEKYLLDSNPTRKMLDEIAREVGLKKRVVQVWFQNTRARERK [H31E] the abundance fitness was 0.426 ± 0.095.
In the case of RLRTTITPEQLEILYEKYLLDSNPTRKMLDDIAREVGLKKRVVQVWFQNTRARERK [H31D], the abundance fitness is reported as 0.05 ± 0.1.
In the case of RLRTTITPEQLEILYEKYLLDSNPTRKMLDGIAREVGLKKRVVQVWFQNTRARERK [H31G], the abundance fitness is reported as -0.004 ± 0.074.
Variant RLRTTITPEQLEILYEKYLLDSNPTRKMLDAIAREVGLKKRVVQVWFQNTRARERK [H31A] has an abundance fitness of 0.042 ± 0.082.
RLRTTITPEQLEILYEKYLLDSNPTRKMLDWIAREVGLKKRVVQVWFQNTRARERK [H31W] gave an abundance fitness of -0.119 ± 0.11.
For RLRTTITPEQLEILYEKYLLDSNPTRKMLDTIAREVGLKKRVVQVWFQNTRARERK [H31T], the abundance fitness was 0.206 ± 0.08.
Variant RLRTTITPEQLEILYEKYLLDSNPTRKMLDCIAREVGLKKRVVQVWFQNTRARERK [H31C] has an abundance fitness of 0.052 ± 0.23.
RLRTTITPEQLEILYEKYLLDSNPTRKMLDRIAREVGLKKRVVQVWFQNTRARERK [H31R] gave an abundance fitness of -0.129 ± 0.071.
